Series [1] has as its system T1, CC1(C(=O)O)OC[C@H]2O[C@@H](Oc3ccc([N+](=O)[O-])cc3)[C@H](O)[C@@H](O)[C@H]2O1.
T1 construct: full length 469 aa, no signal peptide; pET-32b, N-terminal His5 tag, E. coli BL21(DE3)CodonPlus delta-lacZ, Ni-purified
The series is described as follows: discontinuous pNP release, A405. In kind it is biochemical, Bacillus sp. HMA207. The settings on record: 50 mM HEPES-NaOH pH 7.5, 37 °C. The source says: (§1) discontinuous pNP release, A405 on ORF1119 (PvGal-ase)

Series [2] concerns T2, O=[N+]([O-])c1ccc(O[C@@H]2O[C@H](CO)[C@H](O)[C@H](O)[C@H]2O)cc1.
T2 construct: full length 469 aa, no signal peptide; pET-32b, N-terminal His5 tag, E. coli BL21(DE3)CodonPlus delta-lacZ, Ni-purified
The series is described as follows: discontinuous pNP release, A405. In kind it is biochemical, Bacillus sp. HMA207. As to conditions: 50 mM HEPES-NaOH pH 7.5.
Description: as §1

Series [3] has as its system T3, O=[N+]([O-])c1ccc(O[C@@H]2O[C@H](CO)[C@@H](O)[C@H](O)[C@H]2O)cc1.
T3 construct: full length 469 aa, no signal peptide; pET-32b, N-terminal His5 tag, E. coli BL21(DE3)CodonPlus delta-lacZ, Ni-purified
The series is described as follows: discontinuous pNP release, A405. In kind it is biochemical, Bacillus sp. HMA207. As to conditions: 50 mM HEPES-NaOH pH 7.5.
Description: as §1

Series [4] relates to T4, C[C@H]1O[C@@H](Oc2ccc([N+](=O)[O-])cc2)[C@H](O)[C@@H](O)[C@H]1O.
T4 construct: full length 469 aa, no signal peptide; pET-32b, N-terminal His5 tag, E. coli BL21(DE3)CodonPlus delta-lacZ, Ni-purified
Briefly: discontinuous pNP release, A405. In kind it is biochemical, Bacillus sp. HMA207. The settings on record: 50 mM HEPES-NaOH pH 7.5.
Description: as §1

The target of series [5] is T5, ORF1119 (PvGal-ase) (Bacillus sp. HMA207, UniProt Z9IVQ1LJN5, E163A).
T5 construct: full length 469 aa, no signal peptide; pET-32b, N-terminal His5 tag, E. coli BL21(DE3)CodonPlus delta-lacZ, Ni-purified
Briefly: X-ray crystal structure, […] Å. As to conditions: co-crystallised with pNP-β-D-PvGal, pNP lost during crystal growth; active site; phosphate-citrate pH 5.2. In kind it is binding.

The Km is the concentration of substrate that gives half-maximal velocity. In general, kcat refers to the number of substrate molecules converted per active site and unit of time at saturation. A word on the kcat/Km: it is the second-order rate constant that governs catalysis at low substrate concentration. For the compound “ORF1119 (PvGal-ase) (Bacillus sp. HMA207; K434A)”, in series [1], the Michaelis constant (Km) stood at 730 ± 120 µM, the kcat came out at 8.8 ± 0.2 s⁻¹ and the kcat/Km stood at 12000 M⁻¹ s⁻¹.

With “ORF1119 (PvGal-ase) (Bacillus sp. HMA207; N430A)”, in series [1], the Km worked out at 900 ± 160 µM, the kcat came to 7.0 ± 0.2 s⁻¹ and the kcat/Km turned out to be 7700 M⁻¹ s⁻¹.

For “ORF1119 (PvGal-ase) (Bacillus sp. HMA207; S427E)”, in series [2], the Km amounted to 890 ± 90 µM, the kcat was determined as 0.13 ± 0.002 s⁻¹ and the catalytic efficiency (kcat/Km) came out at 149 M⁻¹ s⁻¹. In addition, in series [3], the Km was found to be 460 ± 90 µM, the kcat turned out to be 0.05 ± 0.001 s⁻¹ and the kcat/Km was 98 M⁻¹ s⁻¹. Moreover, in series [4], the Michaelis-Menten constant (Km) was determined as 470 ± 60 µM, the kcat came out at 0.91 ± 0.02 s⁻¹ and the kcat/Km stood at 2000 M⁻¹ s⁻¹.

Regarding “ORF1119 (PvGal-ase) (Bacillus sp. HMA207)”, the Michaelis-Menten constant (Km) amounted to 3300 ± 400 µM in series [2], 7400 ± 400 µM in series [3], 1900 ± 100 µM in series [4] and 810 ± 140 µM in series [1] (37.0 °C). Besides, the kcat in series [2] stood at 0.20 ± 0.005 s⁻¹; in series [3], 0.10 ± 0.002 s⁻¹; in series [4], 1.6 ± 0.02 s⁻¹; in series [1] (37.0 °C), 5.2 ± 0.2 s⁻¹. Moreover, the kcat/Km in series [2] worked out at 60 M⁻¹ s⁻¹; in series [3], 14 M⁻¹ s⁻¹; in series [4], 830 M⁻¹ s⁻¹; in series [1] (37.0 °C), 6300 M⁻¹ s⁻¹.

For “ORF1119 (PvGal-ase) (Bacillus sp. HMA207; S427A)”, in series [1], the Km turned out to be 1920 ± 450 µM, the kcat turned out to be 4.4 ± 0.3 s⁻¹ and the catalytic efficiency (kcat/Km) turned out to be 2300 M⁻¹ s⁻¹.

In the case of “ORF1119 (PvGal-ase) (Bacillus sp. HMA207; Y436A)”, in series [1], the Km was 800 ± 180 µM, the kcat worked out at 0.68 ± 0.03 s⁻¹ and the kcat/Km turned out to be 860 M⁻¹ s⁻¹.

As for “ORF1119 (PvGal-ase) (Bacillus sp. HMA207; Y436F)”, in series [1], the Km worked out at 530 ± 90 µM, the catalytic constant (kcat) is 6.5 ± 0.2 s⁻¹ and the kcat/Km is 12000 M⁻¹ s⁻¹.

Consider “ORF1119 (PvGal-ase) (Bacillus sp. HMA207; N430Y)”, for which, in series [1], the Km amounted to 370 ± 80 µM, the kcat was determined as 7.7 ± 0.2 s⁻¹ and the kcat/Km is 21000 M⁻¹ s⁻¹.

Regarding `C[C@@]1(C(=O)O)OC[C@H]2OC(O)[C@H](O)[C@@H](O)[C@H]2O1` (stereo partly shown) [PvGal], the “X-ray crystal structure, 2.45 Å” value in series [5] is given as “In the complex structure, clear electron density is observed for the PvGal ligand”.

For the origin of these results see article PMC6090015, “Identification and characterization of a novel β-D-galactosidase that releases pyruvylated galactose” (Scientific Reports, 2018).
